{
  "source": "patent US20160326219A1",
  "about": "“OPTICALLY ACTIVATED RECEPTORS” (IST AUSTRIA (INSTITUTE OF SCIENCE AND TECHNOLOGY AUSTRIA), priority 2013, published 2016)",
  "molecules": {"B1": {"name": "Opto-mFGFR1: chimeric receptor of mFGFR1 intracellular domain and VfAU1-LOV, SEQ ID NO: 58 (protein)", "chain": "MGSSKSKPKDPSQRLDMKSGTKKSDFHSQMAVHKLAKSIPLRRQVTVSADSSASMNSGVLLVRPSRLSSSGTPMLAGVSEYELPEDPRWELPRDRLVLGKPLGEGCFGQVVLAEAIGLDKDKPNRVTKVAVKMLKSDATEKDLSDLISEMEMMKMIGKHKNIINLLGACTQDGPLYVIVEYASKGNLREYLQARRPPGLEYCYNPSHNPEEQLSSKDLVSCAYQVARGMEYLASKKCIHRDLAARNVLVTEDNVMKIADFGLARDIHHIDYYKKTTNGRLPVKWMAPEALFDRIYTHQSDVWSFGVLLWEIFTLGGSPYPGVPVEELFKLLKEGHRMDKPSNCTNELYMMMRDCWHAVPSQRPTFKQLVEDLDRIVALTSNQEYLDLSIPLDQYSPSFPDTRSSTCSSGEDSVFSHEPLPEEPCLPRHPTQLANSGLKRRVETGPDYSLVKALQMAQQNFVITDASLPDNPIVYASRGFLTLTGYSLDQILGRNCRFLQGPETDPRAVDKIRNAITKGVDTSVCLLNYRQDGTTFWNLFFVAGLRDSKGNIVNYVGVQSKVSEDYAKLLVNEQNIEYKGVRTSNMLRRKTGGSGVDYPYDVPDYALD", "modifications": "mFGFR1-VfAU1-LOV"}},
  "key": {"[1]": {"tested_on": "MAPK pathway", "assay": "Stimulation and detection of MAPK signaling, PathDetect Elk1 luciferase reporter (HEK293 cells)", "format": "cell-based, human", "protocol": "For light stimulation of cells, an incubator (PT2499, ExoTerra/HAGEN, Holm, Germany) was equipped with 300 light emitting diodes (JS-FS505ORGB-W30 with JS-CON-004 controller, Komerci, Ebern, Germany; λmax˜630 nm (red), λmax˜530 nm (green), λmax˜470 nm (blue), bandwidth ˜±5 nm). Light intensity was controlled with an analog dimmer and measured with a digital power meter (PM120VA, Thorlabs, Munich, Germany). Intensities at maximal output were 2.3 (red), 2.6 (green) and 3.3 (blue light) W/m^2. For stimulation over extended time periods (>8 h), an aluminium box was equipped with the same light-emitting diodes and controller and placed in an incubator with standard tissue culture conditions (see below).\nHEK293 cells and CHO-K1 (American Type Culture Collection (ATCC), Manassas, Va.) cells were maintained in DMEM supplemented with 10% FBS, 100 U/ml penicilin and 0.1 mg/ml streptomycin in a humidified incubator with 5% CO2 atmosphere. After trypsination, 5×10^4 cells were seeded in each well of 96-well plates (three to four wells for each construct) coated with poly-L-ornithine (Sigma, Vienna, Austria). Either transparent plates or black clear bottom plates were used. Cells were transfected using Lipofectamine 2000 (Invitrogen/LifeTech).\nPhycocyanobilin (PCB; Livchem Logistics GmbH, Frankfurt a.M., Germany) was dissolved in a dark room to a stock concentration of 10 mM in DMSO. Aliquots were stored in the dark at −20° C. Prior to experiments, cells were incubated with 50 μM PCB overnight in reduced serum starve medium at 37° C. PCB could also be applied to applied to living animals as it is non-toxic even in high doses (0.17% of diet or 10 mg/kg) (McCarty (2007).\nActivation of the MAPK pathway was assayed with the PathDetect Elk1 trans-Reporting System (Agilent) consisting of an Elk1 phosphorylation-dependent trans-activator and a luciferase-based trans-reporter. Cells were transfected with 213.3 ng total DNA per well (receptor, trans-activator and trans-reporter at ratio of 1:3:60 or 1:30:600) using Lipofectamine 2000. Six h after transfection medium was replaced with CO2-independent reduced serum starve medium (Gibco/Life Technologies; supplemented with 0.5% FBS, 2 mM L-Glutamine, 100 U/ml penicilin and 0.1 mg/ml streptomycin) for 18 h at 37° C. Cells were transferred and were either kept under constant illumination for 8 h or were protected from light. Chemical stimulation of imFGFR1 followed the same procedure, except that 10 nM AP20187 ((Clackson 1998); ARIAD Pharmaceuticals, Cambridge, Mass.) were added before transfer to the stimulation incubator. After incubation, plates were washed once with PBS and luciferase was detected with standard, off-the-shelf reagents. These were either Luciferase 1000 Assay System (Promega, Mannheim, Germany) in combination with a microplate reader equipped with an injector (Tecan Infinite 200 Pro, Maennedorf, Switzerland), or ONE-Glo Assay System (Promega) in combination with a microplate reader not equipped with an injector (BioTek Synergy H1). These assay systems provide equivalent results."}, "[2]": {"tested_on": "mFGFR1-related signaling pathways", "assay": "Detection of additional signaling pathways, Cignal Reporter assays (HEK293 cells)", "format": "cell-based, human", "conditions": "~3 μW/mm^2, FIG. 3", "protocol": "Activation of additional mFGFR1-related signaling pathways was assayed with Cignal Reporter assays (Qiagen, Hilden, Germany) consisting of mixtures of inducible pathway focused transcription factor-responsive firefly luciferase constructs and a constitutively expressing Renilla luciferase construct. Cells were transfected with 100.3 ng total DNA per well (receptor and reporter at ratio of 1:300) using Lipofectamine 2000 and thereafter treated as described above for detection of MAPK signaling. Cells were processed with the Dual-Glo® Luciferase Assay System (Promega) and signals detected with the microplate reader."}, "[3]": {"tested_on": "SPC212 cells", "assay": "Stimulation and Western blot (SPC212 cells)", "format": "cell-based, human", "conditions": "~3 μW/mm^2", "source_text": "(§1) M38K and SPC212, two malignant pleural mesothelioma cell lines, were maintained in RPMI1640 supplemented with 10% FBS. Telomerase-immortalized microvascular hBE cells were maintained in Clonetics EGM2 MV endothelial growth medium (Lonza, Wakersville, Md.) supplemented with 5% FBS. For retrovirus generation, Opto-mFGFR1 or mCherry as control was subcloned into pQCXIP (Clontech, Mountain View, Calif.) using EcoRI and NotI restriction enzymes. Viral particles were generated in HEK293 cells by co-transfection with the helper plasmids pVSV-G and p-gag-pol-gpt. Supernatants were used to transduce M38K, SPC212 or hBE cells grown to 50% confluency in 6-well plates. Cells were selected with 0.8 μg/ml puromycin for 10 d and transgene expression was verified by immunoblotting.\n(§2) For immunoblotting, 5×10^5 cells were seeded in each well of 6-well plates. After 24 h, medium was replaced with reduced serum medium (M38K, SPC212). After additional 20 h, cells were transferred to the stimulation incubator and illuminated for 1, 5 or 15 min or shielded from light. Cells were then either immediately or after additional 5, 15 or 30 min in the dark washed and lysed in 50 μl lysis buffer per well on ice. Lysates were sonicated and centrifuged (12000 g, 5 min, 4° C.). […] Chemiluminescence was developed with WesternC reagent (Biorad, Hercules, Calif.) and signals recorded on X-ray film (GE Healthcare)."}, "[4]": {"tested_on": "blood endothelial cells", "assay": "Stimulation and Western blot (hBE cells)", "format": "cell-based", "conditions": "~3 μW/mm^2", "source_text": "as §1, §2"}, "[5]": {"tested_on": "M38K cells", "assay": "Cell cycle distribution by flow cytometry (M38K cells)", "format": "cell-based, human", "protocol": "Cell cycle distribution was analyzed by flow cytometry. 5×10^5 M38K cells were seeded in 25 cm^2 tissue culture flasks. After 24 h, cells were stimulated for 1 h or kept in the dark. After additional 24 h, cells were fixed in ethanol (70%), treated with 50 μg/ml RNAse A and 50 μg/ml propidium iodide (PI). Flow cytometry was performed on a FACSCalibur (BD Biosciences, Schwechat, Austria) and cell cycle distribution calculated with ModFit LT software (Verity Software House, Topsham, Me.)."}},
  "data": [
    {"molecule": "B1", "values": [
      {"measurement": "MAPK pathway activation in response to blue light", "setting": "[1]; HEK293 cells expressing the fusion protein (LOV domain fused to RTK intracellular domain), ~3 μW/mm^2", "result": "activated the MAPK pathway similarly to imFGFR1"},
      {"measurement": "MAPK pathway activation in response to green light or red light", "setting": "[1]; HEK293 cells, control experiment", "result": "no effect"},
      {"measurement": "Activation by blue light after reducing the lifetime of VfAU1-LOV ~8-fold by mutation", "setting": "[1]; I472V, HEK293 cells, FIG. 5c", "result": "reduces Opto-mFGFR1 activation"},
      {"measurement": "MAPK pathway activation in response to blue light after loss of kinase activity", "setting": "[1]; kinase dead (Y271F, Y272F), HEK293 cells", "result": "no effect"},
      {"measurement": "Blue light intensity at which activated", "setting": "[1]; low intensity blue light", "result": "~3", "unit": "μW/mm^2"},
      {"measurement": "Activation of additional pathways linked to mFGFR1 in response to blue light", "setting": "[2]", "result": "activates"},
      {"measurement": "Phosphorylation upon blue light stimulation", "setting": "[3]", "result": "rapid phosphorylation of Opto-mFGFR1 and ERK1/2 as well as AKT and phospholipase Cy (PLCy)"},
      {"measurement": "Phosphorylation upon blue light stimulation", "setting": "[4]", "result": "rapid phosphorylation of Opto-mFGFR1 and ERK1/2"},
      {"measurement": "Cell cycle distribution upon light stimulation", "setting": "[5]", "result": "a shift of cell cycle distribution towards the S-phase"}
    ]}
  ]
}
